Each block holds one binder with its values, some of them ahead of it.
Molecular target: T1, FcγRIa (human, UniProt P12314 16-292)
T1 construct: extracellular domain; soluble extracellular domain with C-terminal His tag, expressed in FreeStyle293 cells; also called FcgRI; FcgRIa
Assay: SPR (Biacore), captured antibody, FcγRIa analyte; relative to HeCon Ab GpH7-A5/GpH7-B3/GpL16-k0 = 100

T1 sequence (P12314 16-292): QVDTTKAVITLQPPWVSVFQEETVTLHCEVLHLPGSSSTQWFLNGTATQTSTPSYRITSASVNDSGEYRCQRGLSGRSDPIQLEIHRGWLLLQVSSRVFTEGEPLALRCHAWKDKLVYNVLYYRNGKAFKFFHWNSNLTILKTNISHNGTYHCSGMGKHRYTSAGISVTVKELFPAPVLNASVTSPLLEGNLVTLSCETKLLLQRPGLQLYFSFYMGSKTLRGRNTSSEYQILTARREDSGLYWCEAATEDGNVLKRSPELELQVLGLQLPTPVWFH

B4: GpH7-A5/GpH7-B3 variant I336_01G/GpL16-k0 (antibody, human IgG1, kappa)
heavy 1: not shown
heavy 2: not shown
light: DIVMTQSPLSLPVTPGEPASISCQASESLVHSNRNTYLHWYLQKPGQSPQLLIYKVSNRFSGVPDRFSGSGSGTDFTLKISRVEAEDVGVYYCSQNTHVPPTFGQGTKVEIERTVAAPSVFIFPPSDEQLKSGTASVVCLLNNFYPREAKVQWKVDNALQSGNSQESVTEQDSKDSTYSLSSTLTLSKADYEKHKVYACEVTHQGLSSPVTKSFNRGEC
notes: heterodimerized IgG1, mutation in one H chain; also called He Ab
He/Con_1a: 109 % of control

B5: GpH7-A5/GpH7-B3 variant E269_06M/GpL16-k0 (antibody, human IgG1, kappa)
heavy 1: not shown
heavy 2: not shown
light: DIVMTQSPLSLPVTPGEPASISCQASESLVHSNRNTYLHWYLQKPGQSPQLLIYKVSNRFSGVPDRFSGSGSGTDFTLKISRVEAEDVGVYYCSQNTHVPPTFGQGTKVEIERTVAAPSVFIFPPSDEQLKSGTASVVCLLNNFYPREAKVQWKVDNALQSGNSQESVTEQDSKDSTYSLSSTLTLSKADYEKHKVYACEVTHQGLSSPVTKSFNRGEC
notes: as for B4
He/Con_1a: 104 % of control

B6: GpH7-A5/GpH7-B3 variant K326_15Y/GpL16-k0 (antibody, human IgG1, kappa)
heavy 1: not shown
heavy 2: not shown
light: DIVMTQSPLSLPVTPGEPASISCQASESLVHSNRNTYLHWYLQKPGQSPQLLIYKVSNRFSGVPDRFSGSGSGTDFTLKISRVEAEDVGVYYCSQNTHVPPTFGQGTKVEIERTVAAPSVFIFPPSDEQLKSGTASVVCLLNNFYPREAKVQWKVDNALQSGNSQESVTEQDSKDSTYSLSSTLTLSKADYEKHKVYACEVTHQGLSSPVTKSFNRGEC
notes: as for B4
He/Con_1a: 106 % of control

B7: GpH7-A5/GpH7-B3 variant K326_16H/GpL16-k0 (antibody, human IgG1, kappa)
heavy 1: not shown
heavy 2: not shown
light: DIVMTQSPLSLPVTPGEPASISCQASESLVHSNRNTYLHWYLQKPGQSPQLLIYKVSNRFSGVPDRFSGSGSGTDFTLKISRVEAEDVGVYYCSQNTHVPPTFGQGTKVEIERTVAAPSVFIFPPSDEQLKSGTASVVCLLNNFYPREAKVQWKVDNALQSGNSQESVTEQDSKDSTYSLSSTLTLSKADYEKHKVYACEVTHQGLSSPVTKSFNRGEC
notes: as for B4
He/Con_1a: 103 % of control

B8: GpH7-A5/GpH7-B3 variant I336_06M/GpL16-k0 (antibody, human IgG1, kappa)
heavy 1: not shown
heavy 2: not shown
light: DIVMTQSPLSLPVTPGEPASISCQASESLVHSNRNTYLHWYLQKPGQSPQLLIYKVSNRFSGVPDRFSGSGSGTDFTLKISRVEAEDVGVYYCSQNTHVPPTFGQGTKVEIERTVAAPSVFIFPPSDEQLKSGTASVVCLLNNFYPREAKVQWKVDNALQSGNSQESVTEQDSKDSTYSLSSTLTLSKADYEKHKVYACEVTHQGLSSPVTKSFNRGEC
notes: as for B4
He/Con_1a: 108 % of control

B9: GpH7-A5/GpH7-B3 variant I336_04F/GpL16-k0 (antibody, human IgG1, kappa)
heavy 1: not shown
heavy 2: not shown
light: DIVMTQSPLSLPVTPGEPASISCQASESLVHSNRNTYLHWYLQKPGQSPQLLIYKVSNRFSGVPDRFSGSGSGTDFTLKISRVEAEDVGVYYCSQNTHVPPTFGQGTKVEIERTVAAPSVFIFPPSDEQLKSGTASVVCLLNNFYPREAKVQWKVDNALQSGNSQESVTEQDSKDSTYSLSSTLTLSKADYEKHKVYACEVTHQGLSSPVTKSFNRGEC
notes: as for B4
He/Con_1a: 106 % of control

B11: GpH7-A5/GpH7-B3 variant E269_08L/GpL16-k0 (antibody, human IgG1, kappa)
heavy 1: not shown
heavy 2: not shown
light: DIVMTQSPLSLPVTPGEPASISCQASESLVHSNRNTYLHWYLQKPGQSPQLLIYKVSNRFSGVPDRFSGSGSGTDFTLKISRVEAEDVGVYYCSQNTHVPPTFGQGTKVEIERTVAAPSVFIFPPSDEQLKSGTASVVCLLNNFYPREAKVQWKVDNALQSGNSQESVTEQDSKDSTYSLSSTLTLSKADYEKHKVYACEVTHQGLSSPVTKSFNRGEC
notes: as for B4
He/Con_1a: 104 % of control

Results, then the binder that gave them:

He/Con_1a: 102 % of control
B1: GpH7-A5/GpH7-B3 variant P271_03V/GpL16-k0 (antibody, human IgG1, kappa)
heavy 1: not shown
heavy 2: not shown
light: DIVMTQSPLSLPVTPGEPASISCQASESLVHSNRNTYLHWYLQKPGQSPQLLIYKVSNRFSGVPDRFSGSGSGTDFTLKISRVEAEDVGVYYCSQNTHVPPTFGQGTKVEIERTVAAPSVFIFPPSDEQLKSGTASVVCLLNNFYPREAKVQWKVDNALQSGNSQESVTEQDSKDSTYSLSSTLTLSKADYEKHKVYACEVTHQGLSSPVTKSFNRGEC
notes: as for B4

He/Con_1a: 102 % of control
B2: GpH7-A5/GpH7-B3 variant P271_04F/GpL16-k0 (antibody, human IgG1, kappa)
heavy 1: not shown
heavy 2: not shown
light: DIVMTQSPLSLPVTPGEPASISCQASESLVHSNRNTYLHWYLQKPGQSPQLLIYKVSNRFSGVPDRFSGSGSGTDFTLKISRVEAEDVGVYYCSQNTHVPPTFGQGTKVEIERTVAAPSVFIFPPSDEQLKSGTASVVCLLNNFYPREAKVQWKVDNALQSGNSQESVTEQDSKDSTYSLSSTLTLSKADYEKHKVYACEVTHQGLSSPVTKSFNRGEC
notes: as for B4

He/Con_1a: 102 % of control
B3: GpH7-A5/GpH7-B3 variant P271_07I/GpL16-k0 (antibody, human IgG1, kappa)
heavy 1: not shown
heavy 2: not shown
light: DIVMTQSPLSLPVTPGEPASISCQASESLVHSNRNTYLHWYLQKPGQSPQLLIYKVSNRFSGVPDRFSGSGSGTDFTLKISRVEAEDVGVYYCSQNTHVPPTFGQGTKVEIERTVAAPSVFIFPPSDEQLKSGTASVVCLLNNFYPREAKVQWKVDNALQSGNSQESVTEQDSKDSTYSLSSTLTLSKADYEKHKVYACEVTHQGLSSPVTKSFNRGEC
notes: as for B4

He/Con_1a: 102 % of control
B10: GpH7-A5/GpH7-B3 variant P271_06M/GpL16-k0 (antibody, human IgG1, kappa)
heavy 1: not shown
heavy 2: not shown
light: DIVMTQSPLSLPVTPGEPASISCQASESLVHSNRNTYLHWYLQKPGQSPQLLIYKVSNRFSGVPDRFSGSGSGTDFTLKISRVEAEDVGVYYCSQNTHVPPTFGQGTKVEIERTVAAPSVFIFPPSDEQLKSGTASVVCLLNNFYPREAKVQWKVDNALQSGNSQESVTEQDSKDSTYSLSSTLTLSKADYEKHKVYACEVTHQGLSSPVTKSFNRGEC
notes: as for B4
